Where no end group is shown, it is not given here. [ ]: non-standard residue; d: D form. Lys(Me3) = C[N+](C)(C)CCCC[C@H](N)C(=O)O; Lys(Me2) = CN(C)CCCC[C@H](N)C(=O)O; Lys(Me) = CNCCCC[C@H](N)C(=O)O
Columns and labels:
EED (amino acids 40-441) [1] = molecular target: T1, EED (amino acids 40-441) (human, UniProt O75530-1 40-441); test: fluorescence polarisation; fluorescence anisotropy displacement titration: 2-fold serial dilutions of unlabelled peptide with 10 µM EED and 40 nM 5-FAM labelled JARID2-K116me3 peptide; same buffer, 30 °C; Kd of the unlabelled peptide from a fit; details: both partners purified
T1 construct: pGEX-MHL vector, TEV-cleavable GST tag; source: E. coli BL21 (DE3), purified (Glutathione-agarose, TEV cleavage, heparin, gel filtration); not shown: GST, N-terminal, cleaved

EED (amino acids 40-441) [2] = molecular target: T1, EED (amino acids 40-441); test: fluorescence polarisation; fluorescence anisotropy direct titration: various concentrations of EED (40-441) with 40 nM 5-FAM labelled JARID2-K116me3 peptide; 50 mM Tris-HCl pH 7.5, 100 mM KCl, 2 mM 2-mercaptoethanol, 0.1 mg/mL BSA, 0.05% NP-40, 2.5% glycerol; 30 °C, 30 min; details: both partners purified

T1 sequence (O75530 40-441): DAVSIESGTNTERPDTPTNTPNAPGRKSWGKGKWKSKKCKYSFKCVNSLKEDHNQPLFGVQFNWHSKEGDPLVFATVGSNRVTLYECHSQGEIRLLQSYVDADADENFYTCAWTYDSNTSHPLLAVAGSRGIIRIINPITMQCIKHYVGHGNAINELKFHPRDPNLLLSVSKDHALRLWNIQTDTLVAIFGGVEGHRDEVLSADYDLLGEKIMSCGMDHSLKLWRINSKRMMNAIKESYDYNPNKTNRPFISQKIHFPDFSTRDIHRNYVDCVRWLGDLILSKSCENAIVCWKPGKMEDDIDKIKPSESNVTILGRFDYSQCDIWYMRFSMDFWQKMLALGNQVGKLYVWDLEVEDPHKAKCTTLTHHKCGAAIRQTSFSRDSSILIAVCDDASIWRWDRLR

Row | Kd (EED (amino acids 40-441) [1]) [µM] | Kd (EED (amino acids 40-441) [2]) [µM] | Binder
1 | 7.49 | – | LK[Lys(Me3)]FPG [PALI1-K1241me3 peptide]
2 | 41.7 | – | TKAAR[Lys(Me3)]SAPAT (also: trimethyllysine at K27, position not placed (two Lys in chain)) [H3K27me3 peptide]
3 | – | 8.07 | RLQAQR[Lys(Me3)]FAQSQY (also: 5-FAM (5-carboxyfluorescein, single isomer) label, site not given here) [5-carboxyfluorescein (5-FAM) labelled JARID2-K116me3 peptide]
4 | 7.59 | – | LQ[Lys(Me3)]YA [PALI1-K1219me3 peptide]
5 | 19 | – | LK[Lys(Me2)]FPG [PALI1-K1241me2 peptide]
6 | 241 | – | LK[Lys(Me)]FPG [PALI1-K1241me1 peptide]
